From patent US20260209386A1 (MYTHIC THERAPEUTICS, published 2026)
Changes are numbered by the printed parent chain.

T1: Human PTK7 Protein, His Tag, Acro Biosystems (human, UniProt Q13308 31-704)
T1 construct: Bought recombinant protein; also called CCK4; not shown: His tag
T1 sequence: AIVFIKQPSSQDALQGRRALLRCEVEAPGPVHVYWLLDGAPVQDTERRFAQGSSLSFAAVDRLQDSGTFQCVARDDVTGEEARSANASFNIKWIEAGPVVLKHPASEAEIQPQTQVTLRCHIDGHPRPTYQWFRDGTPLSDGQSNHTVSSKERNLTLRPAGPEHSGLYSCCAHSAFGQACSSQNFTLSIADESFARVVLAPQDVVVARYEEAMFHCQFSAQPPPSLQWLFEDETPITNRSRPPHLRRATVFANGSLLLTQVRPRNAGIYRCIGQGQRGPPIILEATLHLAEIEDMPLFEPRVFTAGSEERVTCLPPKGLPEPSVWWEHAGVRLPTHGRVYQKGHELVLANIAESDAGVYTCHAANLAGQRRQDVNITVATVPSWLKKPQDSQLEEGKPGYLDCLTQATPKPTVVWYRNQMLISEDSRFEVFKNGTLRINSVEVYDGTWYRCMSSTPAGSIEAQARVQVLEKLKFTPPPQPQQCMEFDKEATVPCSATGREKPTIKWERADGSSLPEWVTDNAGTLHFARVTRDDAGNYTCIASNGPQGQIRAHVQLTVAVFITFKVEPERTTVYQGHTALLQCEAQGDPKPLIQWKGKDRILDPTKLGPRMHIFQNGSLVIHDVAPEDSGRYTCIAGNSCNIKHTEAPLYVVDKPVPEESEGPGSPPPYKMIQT

T2: Human PTK7 Protein, His Tag (Acro Biosystems) (human, UniProt Q13308 31-704)
T2 construct: Bought recombinant protein; also called CCK4; tyrosine-protein kinase-like 7; not shown: His tag
T2 sequence: T1 sequence

B1: MYT10885 (antibody, V domains shown)
VH: EVQLVESGGGLVQPGGSLRLSCTASHFSLSNYVMNWVRQAPGKGLEWVGIIDSSGSTYYASWAKGRFTISRDTSKNTVYLQMNSLRAEDTAVYFCARGLYLWGQGTLVTVSS
VL: EIVMTQSPSTLSASVGDRVIITCQSSQSVYNNNLLAWYQQKPGKAPKLLIYYTSNLASGVPSRFSGSGSGAEFTLTISSLQPDDFATYYCQGGYNGNIYAFGQGTKLTVL
notes: MYT9345 variant, His at VH pos 26 (H1 01)
B2: MYT10929 (antibody, V domains shown)
VH: B1 VH with H26G
VL: B1 VL with L34H
notes: MYT9345 variant, His at VL pos 34 (L1 11)
B3: MYT10886 (antibody, V domains shown)
VH: B1 VH with H26G, F27H
VL: B1 VL
notes: MYT9345 variant, His at VH pos 27 (H1 02)
B4: MYT10921 (antibody, V domains shown)
VH: B1 VH with H26G
VL: B1 VL with S26H
notes: MYT9345 variant, His at VL pos 26 (L1 03)
B5: MYT10887 (antibody, V domains shown)
VH: B1 VH with H26G, S28H
VL: B1 VL
notes: MYT9345 variant, His at VH pos 28 (H1 03)
B6: MYT10908 (antibody, V domains shown)
VH: B1 VH with H26G, A63H
VL: B1 VL
notes: MYT9345 variant, His at VH pos 63 (H2 14)
B7: MYT10915 (antibody, V domains shown)
VH: B1 VH with H26G, Y100H
VL: B1 VL
notes: MYT9345 variant, His at VH pos 100 (H3 05)
B8: MYT10914 (antibody, V domains shown)
VH: B1 VH with H26G, L99H
VL: B1 VL
notes: MYT9345 variant, His at VH pos 99 (H3 04)
B9: MYT10901 (antibody, V domains shown)
VH: B1 VH with H26G, S56H
VL: B1 VL
notes: MYT9345 variant, His at VH pos 56 (H2 07)
B10: MYT10900 (antibody, V domains shown)
VH: B1 VH with H26G, G55H
VL: B1 VL
notes: MYT9345 variant, His at VH pos 55 (H2 06)
B11: MYT10924 (antibody, V domains shown)
VH: B1 VH with H26G
VL: B1 VL with V29H
notes: MYT9345 variant, His at VL pos 29 (L1 06)
B12: MYT10919 (antibody, V domains shown)
VH: B1 VH with H26G
VL: B1 VL with Q24H
notes: MYT9345 variant, His at VL pos 24 (L1 01)
B13: MYT10906 (antibody, V domains shown)
VH: B1 VH with H26G, S61H
VL: B1 VL
notes: MYT9345 variant, His at VH pos 61 (H2 12)
B14: MYT10907 (antibody, V domains shown)
VH: B1 VH with H26G, W62H
VL: B1 VL
notes: MYT9345 variant, His at VH pos 62 (H2 13)
B15: MYT10894 (antibody, V domains shown)
VH: B1 VH with H26G, N35H
VL: B1 VL
notes: MYT9345 variant, His at VH pos 35 (H1 10)
B16: MYT10909 (antibody, V domains shown)
VH: B1 VH with H26G, K64H
VL: B1 VL
notes: MYT9345 variant, His at VH pos 64 (H2 15)
B17: MYT10923 (antibody, V domains shown)
VH: B1 VH with H26G
VL: B1 VL with S28H
notes: MYT9345 variant, His at VL pos 28 (L1 05)
B18: MYT10904 (antibody, V domains shown)
VH: B1 VH with H26G, Y59H
VL: B1 VL
notes: MYT9345 variant, His at VH pos 59 (H2 10)
B19: MYT10932 (antibody, V domains shown)
VH: B1 VH with H26G
VL: B1 VL with Y52H
notes: MYT9345 variant, His at VL pos 52 (L2 01)
B20: MYT10902 (antibody, V domains shown)
VH: B1 VH with H26G, T57H
VL: B1 VL
notes: MYT9345 variant, His at VH pos 57 (H2 08)
B21: MYT10910 (antibody, V domains shown)
VH: B1 VH with H26G, G65H
VL: B1 VL
notes: MYT9345 variant, His at VH pos 65 (H2 16)
B22: MYT10893 (antibody, V domains shown)
VH: B1 VH with H26G, M34H
VL: B1 VL
notes: MYT9345 variant, His at VH pos 34 (H1 09)
B23: MYT10922 (antibody, V domains shown)
VH: B1 VH with H26G
VL: B1 VL with Q27H
notes: MYT9345 variant, His at VL pos 27 (L1 04)
B24: MYT10931 (antibody, V domains shown)
VH: B1 VH with H26G
VL: B1 VL with A36H
notes: MYT9345 variant, His at VL pos 36 (L1 13)
B25: MYT10933 (antibody, V domains shown)
VH: B1 VH with H26G
VL: B1 VL with T53H
notes: MYT9345 variant, His at VL pos 53 (L2 02)
B26: MYT10890 (antibody, V domains shown)
VH: B1 VH with H26G, N31H
VL: B1 VL
notes: MYT9345 variant, His at VH pos 31 (H1 06)
B27: MYT10912 (antibody, V domains shown)
VH: B1 VH with H26G, R97H
VL: B1 VL
notes: MYT9345 variant, His at VH pos 97 (H3 02)
B28: MYT11400 (antibody, V domains shown)
VH: EVQLVESGGGLVQPGGSLRLSCTASGIDLSNYAVIWVRQAPGKGLEWVGIIYTYDTTYYANWAKGRFTISRDTSKNTVYLQMNSLRAEDTAVYFCARSFSDISDLIKLWGQGTLVTVSS
VL: EIVMTQSPSTLSASVGDRVIITCQASQSLYNNKDLAWYQQKPGKAPKLLIYEASKHASGVPSRFSGSGSGAEFTLTISSLQPDDFATYYCLGEFSCGSGDCLAFGQGTKLTVL
notes: MYT9797 LC variant; captured via anti-human Fc
B29: MYT11419 (antibody, V domains shown)
VH: B28 VH
VL: B28 VL with H56L, E93A
notes: MYT9797 LC alanine variant; captured via anti-human Fc
B30: MYT11413 (antibody, V domains shown)
VH: B28 VH
VL: B28 VL with H56L, A103H
notes: as for B28
B31: MYT11401 (antibody, V domains shown)
VH: B28 VH
VL: B28 VL with H56L, A57H
notes: as for B28
B32: MYT11420 (antibody, V domains shown)
VH: B28 VH
VL: B28 VL with H56L, D100A
notes: as for B29
B33: MYT11403 (antibody, V domains shown)
VH: B28 VH
VL: B28 VL with H56L, L91H
notes: as for B28
B34: MYT11402 (antibody, V domains shown)
VH: B28 VH
VL: B28 VL with H56L, S58H
notes: as for B28
B35: MYT11414 (antibody, V domains shown)
VH: B28 VH
VL: B28 VL with H56L, T111E, V112I, L113K
notes: captured via anti-human Fc
B36: MYT11408 (antibody, V domains shown)
VH: B28 VH
VL: B28 VL with H56L, G97H
notes: as for B28

What follows are binders tested against T1, Human PTK7 Protein, His Tag, Acro … (assay: BLI (Octet), antibody on anti-human Fc sensor, 50 nM PTK7 at pH 7.4, dissociation at pH 7.4 or 5.4; 2 = substantially similar binding relative to parent).

Binding result, binds:
B1
B2
B3
B4
B5
B6
B7
B8
B9
B10
B11
B12
B13
B14
B15
B16
B17
B18
B19
B20
B21
B22
B23
B24
B25
B26
B27

The binders below were run against T2, Human PTK7 Protein, His Tag (Acro …) (assay: BLI, antibody on anti-human Fc sensor, 50 nM PTK7 at pH 7.4, dissociation at pH 7.4 or 5.4; 2 = substantially similar binding relative to parent).

Binding result, binds:
B28
B29
B30
B31
B32
B33
B34
B35
B36
